Measurements as given in PMC6317306.
Changes are numbered by the printed parent chain.

B1: HA-Nek2A (enzyme)
chain: MPSRAEDYEVLYTIGTGSYGRCQKIRRKSDGKILVWKELDYGSMTEAEKQMLVSEVNLLRELKHPNIVRYYDRIIDRTNTTLYIVMEYCEGGDLASVITKGTKERQYLDEEFVLRVMTQLTLALKECHRRSDGGHTVLHRDLKPANVFLDGKQNVKLGDFGLARILNHDTSFAKTFVGTPYYMSPEQMNRMSYNEKSDIWSLGCLLYELCALMPPFTAFSQKELAGKIREGKFRRIPYRYSDELNEIITRMLNLKDYHRPSVEEILENPLIADLVADEQRRNLERRGRQLGEPEKSQDSSPVLSELKLKEIQLQERERALKAREERLEQKEQELCVRERLAEDKLARAENLLKNYSLLKERKFLSLASNPELLNLPSSVIKKKVHFSGESKENIMRSENSESQLTSKSKCKDLKKRLHAAQLRAQALSDIEKNYQLKSRQILGMR
B2: HA-Nek2A-4D (enzyme)
chain: B1 chain with S356D, S365D, S406D, S438D

Target: FLAG-Cep85-6D (UniProt Q6P2H3)
Assay: co-IP

Binder | percent reduction of affinity against Nek2A-4A [%]
B1 | 50
B2 | > 60
